{
  "source": "patent US20240034757A1",
  "about": "(OXFORD UNIVERSITY INNOVATION, published 2024)",
  "binders": {"B1": {"name": "P991_AMBCA (other)", "chain": "ENGEGTTQPDYDNSTDYYNYEDFKCTCPAPHLNNTNGTVMKPIGCYYTCNVTRCTAPDTYPCYNLTEHQAKNLTTSPTTLCAVGNCDHGICVPNGTKELCFKAPNLEE"}, "B2": {"name": "P1156:G4S:P1243 (designed binder)", "chain": "ADDDNELFTVQYCGMNCTKDEGGTWTGCTGKKEGCKCYHESGKNYGLCLSTEYTDFSQYGNPSDSEIEAAKPKRSDTLSHGGGGSRNHTEDNSTEYYDYEEARCACPARHLNNTNGTVLKLLGCHYFCNGTLCTAPDGYPCYNLTAQQVRTLTTYPNTSCAVGVCMKGTCVKNGTMEQCFKTP", "notes": "also called two-warhead evasin"}},
  "key": {"CCL5_HUMAN [1]": {"molecular_target": "T1, CCL5_HUMAN (human, UniProt P13501 24-91)", "T1 sequence": "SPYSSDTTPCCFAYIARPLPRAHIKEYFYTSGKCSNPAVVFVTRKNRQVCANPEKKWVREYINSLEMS", "assay": "BLI"}, "CCL7_HUMAN [2]": {"molecular_target": "T2, CCL7_HUMAN (human, UniProt P80098 24-99)", "T2 sequence (P80098 24-99 limits assumed)": "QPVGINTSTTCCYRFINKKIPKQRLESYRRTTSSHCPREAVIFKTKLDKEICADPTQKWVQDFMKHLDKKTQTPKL", "assay": "BLI"}, "CCL8_HUMAN [3]": {"molecular_target": "T3, CCL8_HUMAN (human, UniProt P80075 24-99)", "T3 sequence (looked up)": "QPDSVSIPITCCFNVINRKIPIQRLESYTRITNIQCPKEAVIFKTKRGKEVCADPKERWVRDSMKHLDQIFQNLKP", "assay": "BLI"}, "CCL11_HUMAN": {"molecular_target": "CCL11_HUMAN (human, UniProt P51671 24-97)", "sequence (P51671 24-97 limits assumed)": "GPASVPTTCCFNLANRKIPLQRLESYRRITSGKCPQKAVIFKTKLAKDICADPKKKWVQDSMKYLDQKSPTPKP", "assay": "BLI"}, "CCL13_HUMAN": {"molecular_target": "CCL13_HUMAN (human, UniProt Q99616 24-98)", "sequence (Q99616 24-98 limits assumed)": "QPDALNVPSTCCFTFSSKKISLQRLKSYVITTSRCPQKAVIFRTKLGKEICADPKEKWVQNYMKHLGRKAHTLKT", "assay": "BLI"}, "CCL14_HUMAN": {"molecular_target": "T4, CCL14_HUMAN (human, UniProt Q16627 22-93)", "T4 sequence": "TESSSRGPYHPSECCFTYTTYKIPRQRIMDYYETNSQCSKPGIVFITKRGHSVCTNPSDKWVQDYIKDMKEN", "assay": "BLI"}, "CCL15_HUMAN": {"molecular_target": "T5, CCL15_HUMAN (human, UniProt Q16663 22-113)", "T5 sequence": "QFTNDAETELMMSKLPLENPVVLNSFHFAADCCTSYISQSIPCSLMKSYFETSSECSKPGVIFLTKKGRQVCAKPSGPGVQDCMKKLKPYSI", "assay": "BLI"}, "CCL16_HUMAN": {"molecular_target": "T6, CCL16_HUMAN (human, UniProt O15467 24-120)", "T6 sequence": "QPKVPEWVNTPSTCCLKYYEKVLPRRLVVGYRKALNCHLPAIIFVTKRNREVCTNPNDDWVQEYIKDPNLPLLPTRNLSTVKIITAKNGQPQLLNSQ", "assay": "BLI"}, "CCL17_HUMAN": {"molecular_target": "T7, CCL17_HUMAN (human, UniProt Q92583 24-94)", "T7 sequence": "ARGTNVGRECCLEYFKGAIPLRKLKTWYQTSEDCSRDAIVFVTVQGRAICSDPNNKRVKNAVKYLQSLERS", "assay": "BLI"}, "CCL18_HUMAN": {"molecular_target": "T8, CCL18_HUMAN (human, UniProt P55774 21-89)", "T8 sequence": "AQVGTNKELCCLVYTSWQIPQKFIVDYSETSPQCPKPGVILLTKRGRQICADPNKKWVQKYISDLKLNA", "assay": "BLI"}, "CCL19_HUMAN": {"molecular_target": "T9, CCL19_HUMAN (human, UniProt Q99731 22-98)", "T9 sequence": "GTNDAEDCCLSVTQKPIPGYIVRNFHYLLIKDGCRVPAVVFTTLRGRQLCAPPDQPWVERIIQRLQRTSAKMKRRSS", "assay": "BLI"}, "CCL20_HUMAN": {"molecular_target": "CCL20_HUMAN (human, UniProt P78556 27-96)", "sequence (P78556 27-96 limits assumed)": "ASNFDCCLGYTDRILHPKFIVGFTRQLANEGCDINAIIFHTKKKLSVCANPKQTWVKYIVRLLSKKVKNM", "assay": "BLI"}, "CCL21_HUMAN": {"molecular_target": "T10, CCL21_HUMAN (human, UniProt O00585 24-134)", "T10 sequence": "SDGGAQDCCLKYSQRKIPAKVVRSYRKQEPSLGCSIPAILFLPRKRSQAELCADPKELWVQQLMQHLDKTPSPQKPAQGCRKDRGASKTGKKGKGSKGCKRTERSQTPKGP", "assay": "BLI"}, "CCL22_HUMAN": {"molecular_target": "T11, CCL22_HUMAN (human, UniProt O00626 25-93)", "T11 sequence": "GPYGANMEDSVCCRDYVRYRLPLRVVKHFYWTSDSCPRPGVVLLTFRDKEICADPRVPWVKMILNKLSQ", "assay": "BLI"}, "CCL23_HUMAN": {"molecular_target": "T12, CCL23_HUMAN (human, UniProt P55773 22-120)", "T12 sequence": "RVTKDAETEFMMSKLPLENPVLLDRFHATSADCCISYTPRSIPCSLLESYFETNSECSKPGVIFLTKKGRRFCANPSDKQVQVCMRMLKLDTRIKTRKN", "assay": "BLI"}, "CCL24_HUMAN": {"molecular_target": "T13, CCL24_HUMAN (human, UniProt O00175 27-104)", "T13 sequence": "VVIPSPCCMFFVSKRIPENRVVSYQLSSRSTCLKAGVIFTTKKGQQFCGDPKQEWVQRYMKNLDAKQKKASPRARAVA", "assay": "BLI"}, "CCL27_HUMAN": {"molecular_target": "T14, CCL27_HUMAN (human, UniProt Q9Y4X3 25-112)", "T14 sequence": "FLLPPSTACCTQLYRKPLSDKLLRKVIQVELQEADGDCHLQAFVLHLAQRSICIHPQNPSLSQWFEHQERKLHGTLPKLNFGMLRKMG", "assay": "BLI"}, "CCL1_HUMAN": {"molecular_target": "T15, CCL1_HUMAN (human, UniProt P22362 24-96)", "T15 sequence": "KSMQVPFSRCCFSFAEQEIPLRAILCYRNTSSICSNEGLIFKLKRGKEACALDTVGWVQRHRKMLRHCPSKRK", "assay": "BLI"}, "CCL2_HUMAN [4]": {"molecular_target": "T16, CCL2_HUMAN (human, UniProt P13500 24-99)", "T16 sequence (P13500 24-99 limits assumed)": "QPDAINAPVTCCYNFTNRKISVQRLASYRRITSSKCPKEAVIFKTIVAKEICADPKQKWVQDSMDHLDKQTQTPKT", "assay": "BLI"}, "CCL3_HUMAN [5]": {"molecular_target": "T17, CCL3_HUMAN (human, UniProt P10147 24-92)", "T17 sequence": "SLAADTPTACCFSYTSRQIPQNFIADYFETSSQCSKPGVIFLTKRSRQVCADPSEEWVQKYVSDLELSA", "assay": "BLI"}, "CCL3L1_HUMAN [6]": {"molecular_target": "T18, CCL3L1_HUMAN (human, UniProt P16619 24-93)", "T18 sequence": "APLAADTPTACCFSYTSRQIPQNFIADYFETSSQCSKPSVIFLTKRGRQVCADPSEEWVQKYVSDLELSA", "assay": "BLI"}, "CCL4_HUMAN": {"molecular_target": "T19, CCL4_HUMAN (human, UniProt P13236 24-92)", "T19 sequence": "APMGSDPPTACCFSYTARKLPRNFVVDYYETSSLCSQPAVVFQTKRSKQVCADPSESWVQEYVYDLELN", "assay": "BLI"}, "CCL4L1_HUMAN": {"molecular_target": "T20, CCL4L1_HUMAN (human, UniProt Q8NHW4 24-92)", "T20 sequence": "T19 sequence with S47G", "assay": "BLI"}, "CCL5_HUMAN [7]": {"molecular_target": "T1, CCL5_HUMAN", "assay": "cell-based or functional assay"}, "CCL7_HUMAN [8]": {"molecular_target": "T2, CCL7_HUMAN", "assay": "cell-based or functional assay"}, "CCL8_HUMAN [9]": {"molecular_target": "T3, CCL8_HUMAN", "assay": "cell-based or functional assay"}, "CCL2_HUMAN [10]": {"molecular_target": "T16, CCL2_HUMAN", "assay": "cell-based or functional assay"}, "CCL3_HUMAN [11]": {"molecular_target": "T17, CCL3_HUMAN", "assay": "cell-based or functional assay"}, "CCL3L1_HUMAN [12]": {"molecular_target": "T18, CCL3L1_HUMAN", "assay": "cell-based or functional assay"}, "CCL5_HUMAN [13]": {"molecular_target": "T1, CCL5_HUMAN", "assay": "BLI, evasin on nickel sensor"}, "CXCL1_HUMAN": {"molecular_target": "T21, CXCL1_HUMAN (human, UniProt P09341 35-107)", "T21 sequence": "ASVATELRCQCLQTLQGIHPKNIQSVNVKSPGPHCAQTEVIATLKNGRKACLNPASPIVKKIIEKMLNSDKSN", "assay": "BLI, sensor already loaded with CCL5"}, "CXCL8_HUMAN": {"molecular_target": "T22, CXCL8_HUMAN (human, UniProt P10145 28-99)", "T22 sequence": "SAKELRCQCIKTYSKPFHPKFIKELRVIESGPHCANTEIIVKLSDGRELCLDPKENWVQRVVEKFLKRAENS", "assay": "BLI, sensor already loaded with CCL5"}},
  "note": "Where a chain is given by its changes, count along the chain named. Names may count otherwise.",
  "data": [
    {"binder": "B1", "values": [
      {"measurement": "RT", "setting": "CCL5_HUMAN [1]", "value": 113, "unit": "min"},
      {"measurement": "RT", "setting": "CCL7_HUMAN [2]", "value": 508, "unit": "min"},
      {"measurement": "RT", "setting": "CCL8_HUMAN [3]", "value": 10.8, "unit": "min"},
      {"measurement": "RT", "setting": "CCL11_HUMAN", "value": 24.9, "unit": "min"},
      {"measurement": "RT", "setting": "CCL13_HUMAN", "value": 290, "unit": "min"},
      {"measurement": "RT", "setting": "CCL14_HUMAN", "value": 192, "unit": "min"},
      {"measurement": "RT", "setting": "CCL15_HUMAN", "value": 1.08, "unit": "min"},
      {"measurement": "RT", "setting": "CCL16_HUMAN", "value": 102, "unit": "min"},
      {"measurement": "RT", "setting": "CCL17_HUMAN", "value": 10.3, "unit": "min"},
      {"measurement": "RT", "setting": "CCL18_HUMAN", "value": 185, "unit": "min"},
      {"measurement": "RT", "setting": "CCL19_HUMAN", "value": 7, "unit": "min"},
      {"measurement": "RT", "setting": "CCL20_HUMAN", "value": 7.03, "unit": "min"},
      {"measurement": "RT", "setting": "CCL21_HUMAN", "value": 12.1, "unit": "min"},
      {"measurement": "RT", "setting": "CCL22_HUMAN", "value": 16.8, "unit": "min"},
      {"measurement": "RT", "setting": "CCL23_HUMAN", "value": 32.3, "unit": "min"},
      {"measurement": "RT", "setting": "CCL24_HUMAN", "value": 7.07, "unit": "min"},
      {"measurement": "RT", "setting": "CCL27_HUMAN", "value": 4.14, "unit": "min"},
      {"measurement": "RT", "setting": "CCL1_HUMAN", "value": 5.37, "unit": "min"},
      {"measurement": "RT", "setting": "CCL2_HUMAN [4]", "value": 4.17, "unit": "min"},
      {"measurement": "RT", "setting": "CCL3_HUMAN [5]", "value": 42.6, "unit": "min"},
      {"measurement": "RT", "setting": "CCL3L1_HUMAN [6]", "value": 52, "unit": "min"},
      {"measurement": "RT", "setting": "CCL4_HUMAN", "value": 32.2, "unit": "min"},
      {"measurement": "RT", "setting": "CCL4L1_HUMAN", "value": 42.8, "unit": "min"},
      {"measurement": "IC50, THP1 cell migration", "setting": "CCL5_HUMAN [7]", "value": 1.84, "unit": "nM"},
      {"measurement": "IC50, THP1 cell migration", "setting": "CCL7_HUMAN [8]", "value": 6.51, "unit": "nM"},
      {"measurement": "IC50, THP1 cell migration", "setting": "CCL8_HUMAN [9]", "value": 2.1, "unit": "nM"},
      {"measurement": "IC50, THP1 cell migration", "setting": "CCL2_HUMAN [10]", "value": 4.78, "unit": "nM"},
      {"measurement": "IC50, THP1 cell migration", "setting": "CCL3_HUMAN [11]", "value": 2.9, "unit": "nM"},
      {"measurement": "IC50, THP1 cell migration", "setting": "CCL3L1_HUMAN [12]", "value": 1.17, "unit": "nM"}
    ]},
    {"binder": "B2", "values": [
      {"measurement": "binding result", "setting": "CCL5_HUMAN [13]", "value": "binds"},
      {"measurement": "binding result", "setting": "CXCL1_HUMAN", "value": "binds"},
      {"measurement": "binding result", "setting": "CXCL8_HUMAN", "value": "binds"}
    ]}
  ]
}
